Key:
Test in all cases: purified protein, by the assay type
[1] = substrate: NC(=O)c1ccc[n+]([C@@H]2O[C@H](COP(=O)([O-])OP(=O)(O)OC[C@H]3O[C@@H](n4cnc5c(N)ncnc54)[C@H](O)[C@@H]3O)[C@@H](O)[C@H]2O)c1; settings: other: coenzyme NADP or NAD; pH 8.9
From the text: The activity required to increase the absorbance of 1 micromol of NADPH at 340 nm per minute was defined to be one unit.

[2] = substrate: NC(=O)c1ccc[n+]([C@@H]2O[C@H](COP(=O)([O-])OP(=O)(O)OC[C@H]3O[C@@H](n4cnc5c(N)ncnc54)[C@H](OP(=O)(O)O)[C@@H]3O)[C@@H](O)[C@H]2O)c1; settings: other: coenzyme NADP or NAD; pH 8.9
[3] = substrate: O=P(O)(O)OC[C@H]1OC(O)[C@H](O)[C@@H](O)[C@@H]1O; settings: other: substrate glucose-6-phosphate; pH 8.9

B1: heat-resistant glucose-6-phosphate dehydrogenase from Bacillus stearothermophilus UK 788 (FERM-P No. 5141) (Geobacillus stearothermophilus ATCC 12980) (protein)
chain: MDNMNPKSIIVIFGATGDLAKRKLFPSLYRLYEKGHLNEQFAVVGVARRPLSADEFRNYVRDSVETAFHQKLADGRFTSHFYYHPFDVTEAESYQRLKSLLEQLDGTYKTEGNRIFYLAMAPEFFGTVTSRLQSEGLTETHGFKRLVIEKPFGHDLASAEKLNDEIRRVFSEREIYRIDHYLGKEMVQNIKVIRFSNAIFEPLWNNRFIANIQITSSETLGVEDRGRYYDHSGALRDMVQNHMLQMVALLAMEPPIKLTTDDIRHEKVKVLRALRPIAHDEVDRYFVRGQYGRGVIHGKHVPAYREEPNVDPDSNTETFVAGKLLIDNFRWAGVPFYIRTGKRMAEKSTKIVVQFKDVPMNLYYRTNETIAPNLLVIHIQPDEGITLHLNGKKTGESTTITAPFQLDYCNNCIDGINTPEAYEKLLYDCMRGDATNFTHWDEVAASWQFVDPISEVWANTKASDFPNYAAGSMGPAAAGELLKKDGFHWWPIEHPRP
Km [1]: 1640 µM
Km [2]: 16 µM
Km [3]: 160 µM
